According to publication PMC6475481 (Journal of the American Chemical Society, 2019):
Blank lines part the entries; values can stand above or below the binder they belong to.

Assays:
AqpZ, P60844 = biological target: T1, AqpZ, P60844; test: native MS; settings: remark: other sources report otherwise
T1 chain: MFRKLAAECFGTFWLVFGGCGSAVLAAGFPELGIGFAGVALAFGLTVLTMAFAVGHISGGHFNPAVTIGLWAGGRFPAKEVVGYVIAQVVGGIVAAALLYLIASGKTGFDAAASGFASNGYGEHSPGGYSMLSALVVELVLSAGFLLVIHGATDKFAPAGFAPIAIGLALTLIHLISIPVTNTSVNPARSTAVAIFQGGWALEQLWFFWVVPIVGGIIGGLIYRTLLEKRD

native MS = biological target: the molecule itself; test: native MS

stoichiometry N (AqpZ, P60844): 4
B1: AqpZ, P60844 1-231 (natural protein)
chain: T1 chain

B2: AmtB (natural protein)
chain: VADKADNAFMMICTALVLFMTIPGIALFYGGLIRGKNVLSMLTQVTVTFALVCILWVVYGYSLAFGEGNNFFGNINWLMLKNIELTAVMGSIYQYIHVAFQGSFACITVGLIVGALAERIRFSAVLIFVVVWLTLSYIPIAHMVWGGGLLASHGALDFAGGTVVHINAAIAGLVGAYLIGKRVGFGKEAFKPHNLPMVFTGTAILYIGWFGFNAGSAGTANEIAALAFVNTVVATAAAILGWIFGEWALRGKPSLLGACSGAIAGLVGVTPACGYIGVGGALIIGVVAGLAGLWGVTMLKRLLRVDDPCDVFGVHGVCGIVGCIMTGIFAASSLGGVGFAEGVTMGHQLLVQLESIAITIVWSGVVAFIGYKLADLTVGLRVPEEQEREGLDVNSHGENAYNA
stoichiometry N (native MS): 3
